# Laboratory results taken from US20250282879A1.
# Like-named read-outs stand apart in the source and are kept apart here.
# Columns and labels:
# Human IL-4R-Fc (human) = Human IL-4R-Fc (human) (UniProt P24394); assay: SPR, hIL-4R-Fc captured, scFv analyte
# [1] = biological target: cynomolgus IL-4R-Fc (cynomolgus monkey (Macaca fascicularis)); assay: SPR, capture setup, cynomolgus IL-4R-Fc captured
# [2] = biological target: cynomolgus IL-4R ECD (cynomolgus monkey (Macaca fascicularis)); assay: SPR, direct setup, cynomolgus IL-4R ECD immobilized
# [3] = biological target: human IL-4R on cells (HEK-Blue IL-4/IL-13 cells, human PBMC, human whole blood) (human) (UniProt P24394); assay: cell-based or functional assay
# [4] = biological target: marmoset IL-4R ECD (marmoset (Callithrix jacchus)) (UniProt Q0PIT7); assay: SPR, direct setup, marmoset IL-4R ECD immobilized
# [5] = biological target: recombinant human IL-31 protein (Peprotech) (human) (UniProt Q6EBC2)
# [6] = biological target: recombinant human IL-31 protein (Peprotech) (human) (UniProt Q6EBC2); remark: listed apart in the source
# [7] = biological target: recombinant human IL-31 protein (Peprotech) (human) (UniProt Q6EBC2); remark: listed apart in the source
# [8] = biological target: recombinant human IL-31 protein (Peprotech) (human) (UniProt Q6EBC2); remark: listed apart in the source
# [9] = biological target: recombinant cynomolgus monkey IL-31 (ECD with His Tag, Sino Biological) (cynomolgus monkey)
# [10] = biological target: recombinant cynomolgus monkey IL-31 (ECD with His Tag, Sino Biological) (cynomolgus monkey); assay: SPR, IL-31-His captured, scFv analyte (30 and 10 nM)
# [11] = biological target: recombinant human IL-31 protein (Peprotech) (human) (UniProt Q6EBC2); assay: cell-based or functional assay
# [12] = biological target: recombinant cynomolgus monkey IL-31 (ECD with His Tag, Sino Biological) (cynomolgus monkey); assay: SPR, IL-31-His captured, scFv analyte, full titration mode
# [13] = biological target: recombinant cynomolgus monkey IL-31 (ECD with His Tag, Sino Biological) (cynomolgus monkey); assay: SPR, IL-31-His captured, scFv analyte, screening mode
# Sequence of marmoset IL-4R ECD (marmoset (Callithrix jacchus)) (Q0PIT7 entry or part of it limits assumed): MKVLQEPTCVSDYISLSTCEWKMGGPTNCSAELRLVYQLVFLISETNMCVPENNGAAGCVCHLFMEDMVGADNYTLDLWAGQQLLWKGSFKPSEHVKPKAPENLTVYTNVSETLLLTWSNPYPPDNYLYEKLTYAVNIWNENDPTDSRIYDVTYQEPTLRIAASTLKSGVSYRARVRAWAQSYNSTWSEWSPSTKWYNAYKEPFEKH
# Sequence of cynomolgus IL-4R ECD (cynomolgus monkey (Macaca fascicularis)) (A0A2K5 entry or part of it limits assumed): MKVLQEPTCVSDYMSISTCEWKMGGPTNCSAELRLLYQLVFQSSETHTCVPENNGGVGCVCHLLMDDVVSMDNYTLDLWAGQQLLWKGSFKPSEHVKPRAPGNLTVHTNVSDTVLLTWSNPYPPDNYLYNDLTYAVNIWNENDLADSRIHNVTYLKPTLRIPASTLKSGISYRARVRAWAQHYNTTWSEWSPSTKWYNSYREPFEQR
# Sequence of cynomolgus IL-4R-Fc (cynomolgus monkey (Macaca fascicularis)) (chain, as listed by the source): as the sequence (A0A2K5 entry or part of it limits assumed) above
# Sequence of recombinant human IL-31 protein (Peprotech) (human) (Q6EBC2 24-164 limits assumed): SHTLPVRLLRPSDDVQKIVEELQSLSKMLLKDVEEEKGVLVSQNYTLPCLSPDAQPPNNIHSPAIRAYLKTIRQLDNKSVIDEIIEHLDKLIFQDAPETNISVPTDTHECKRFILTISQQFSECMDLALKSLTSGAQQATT
binder,measurement,setting,value
"PRO1517 (scFv, V domains shown) VH: EVQLVESGGGLVQPGGSLRLSCAASGFSSSSAHYMCWVRQAPGKGLEWIGCIYAGSRGSTYYASWAKGRFTISRDNSKNTVYLQMNSLRAEDTAVYYCARAAFVNRGVSWIWPYYFSLWGQGTLVTVSS VL: DIQMTQSPSSLSASVGDRVTITCQASEDIESYLAWYQQKPGKAPKLLIYRASTLAYGVPSRFSGSGSGTDFTLTISSLQPEDFATYYCLGSSYSTGSNIFGTGTKVTVLG",Kd,Human IL-4R-Fc (human),0.0055 nM
same,koff,Human IL-4R-Fc (human),1.95e-05 s⁻¹
same,kon,Human IL-4R-Fc (human),3.55e+06 M⁻¹ s⁻¹
same,Kd,[1],0.0946 nM
same,koff,[1],0.000182 s⁻¹
same,kon,[1],1.92e+06 M⁻¹ s⁻¹
same,Kd,[2],0.681 nM
same,koff,[2],0.000404 s⁻¹
same,kon,[2],594000 M⁻¹ s⁻¹
same,"IC50, neutralization of hIL-4-induced signaling, stat-6 reporter gene assay",[3],1.44 ng/mL
same,"IC50, neutralization of hIL-13-induced signaling, stat-6 reporter gene assay",[3],1.83 ng/mL
same,"rel. IC50 (IC50, dupilumab/IC50, test sample), hIL-4",[3],0.39
same,"rel. IC50 (IC50, dupilumab/IC50, test sample), hIL-13",[3],0.57
same,Kd,[4],0.392 nM
same,koff,[4],0.00105 s⁻¹
same,kon,[4],2.67e+06 M⁻¹ s⁻¹
"PRO1899 (scFv, V domains shown) VH: EVQLVESGGGRVQPGGSLRLSCAASGFSSSSAHYMCWVRQAPGKGLEWIGCIYAGSRGSTYYASWAKGRFTISKASSTTVYLQMNSLRAEDTATYYCARAAFVNRGVSWIWPYYFSLWGQGTQVTVSS VL: DIQMTQSPSSLSASVGDRVTITCQASEDIESYLAWYQQKPGKAPKLLIYRASTLAYGVPSRFSGSGSGTDFTLTISSLQPEDFATYYCLGSSYSTGSNIFGTGTKVTVLG","IC50, neutralization of hIL-4 induced signaling, stat-6 reporter gene assay",[3],0.71 ng/mL
same,"IC50, neutralization of hIL-13 induced signaling, stat-6 reporter gene assay",[3],0.56 ng/mL
same,"rel. IC50 (IC50, dupilumab/IC50, test sample), hIL-4",[3],1.61
same,"rel. IC50 (IC50, dupilumab/IC50, test sample), hIL-13",[3],1.8
"PRO1898 (scFv, V domains shown) VH: EVQLVESGGGLVQPGGSLRLSCAASGFSSSSAHYMCWVRQAPGKGLEWIGCIYAGSRGSTYYASWAKGRFTISRDNSKNTVYLQMNSLRAEDTAVYYCARAAFVNRGVSWIWPYYFSLWGQGTLVTVSS VL: DIQMTQSPSSLSARVGDRVTITCQASEDIESYLAWYQQKPGKAPKLLIYRASTLAYGVPSRFSGSGSGRDFTLTISSLQPEDFATYYCLGSSYSTGSNIFGTGTKVTVLG","IC50, neutralization of hIL-4 induced signaling, stat-6 reporter gene assay",[3],1 ng/mL
same,"IC50, neutralization of hIL-13 induced signaling, stat-6 reporter gene assay",[3],1.15 ng/mL
same,"rel. IC50 (IC50, dupilumab/IC50, test sample), hIL-4",[3],1.15
same,"rel. IC50 (IC50, dupilumab/IC50, test sample), hIL-13",[3],0.87
"BMS-981164 (antibody, from another filing, V domains shown) VH: QVQLVQSGAEVKKPGASVKVSCKASGYTLTRYWMQWVRQAPGQGLEWMGAIYPGDGDTRYSQKFQGRVTLTADKSTSTAYMELSSLRSEDTAVYYCAFPDGYYAAPYGMDYWGQGTLVTVSS VL: DIQMTQSPSSLSASVGDRVTITCRASGNIHNYLAWYQQKPGKVPKLLIYNAKTLADGVPSRFSGSRSETQYSLTISSLQPEDVATYYCQHFWSTPWTFGQGTKVEIKR","IC50 (read off the curve), human IL-31-induced IL-31RA/OSMR dimerization",[5],0.06 nM
same,"IC50 (read off the curve), human IL-31-induced IL-31RA/OSMR dimerization",[6],0.1 nM
same,"IC50 (read off the curve), human IL-31-induced IL-31RA/OSMR dimerization",[7],0.2 nM
same,"IC50 (read off the curve), human IL-31-induced IL-31RA/OSMR dimerization",[8],0.07 nM
same,"IC50, cynomolgus IL-31-induced IL-31RA/OSMR dimerization (RLU) [table under the graph]",[9],0.178 nM
"PRO1900 (scFv, V domains shown) VH: QSQLVESGGGRVQPGGSLRLSCAASGFSFSANYWICWVRQAPGKGLEWIVCIYIGSRADTYYAPWAKGRFTISKDNSKNTVYLQMNSLRAEDTATYFCARFSSGIYDLDRFFLWGQGTQVTVSS V domain: AFQLTQSPSSLSASVGDRVTITCQASQSIDSWLAWYQQKPGKPPKLLIYQASKLASGVPSRFSGSGSGTDYTLTISSLQPEDFATYYCQTYYGGGHIGWGFGTGTKVTV",Kd,[10],1.07 nM
same,koff,[10],0.000594 s⁻¹
same,kon,[10],554000 M⁻¹ s⁻¹
same,"IC50, neutralization of hIL-31-induced signaling in IL-31RA/OSMR dimerization assay",[11],8.21 ng/mL
same,"rel. IC50 (IC50, BMS-981164/IC50, test sample)",[11],0.73
"PRO1643 (scFv, V domains shown) VH: QSQLVESGGGLVQPGGSLRLSCAASGFSFSANYWICWVRQAPGKGLEWIVCIYIGSRADTYYAPWAKGRFTISKDNSKNTVYLQMNSLRAEDTAVYFCARFSSGIYDLDRFFLWGQGTLVTVSS V domain: AFQLTQSPSSLSASVGDRVTITCQASQSIDSWLAWYQQKPGKPPKLLIYQASKLASGVPSRFSGSGSGTDYTLTISSLQPEDFATYYCQTYYGGGHIGWGFGTGTKVTV",Kd,[12],0.557 nM
same,koff,[12],0.000426 s⁻¹
same,kon,[12],764000 M⁻¹ s⁻¹
same,Kd,[13],0.583 nM
same,koff,[13],0.000444 s⁻¹
same,kon,[13],761000 M⁻¹ s⁻¹
same,Kd,[10],1.17 nM
same,koff,[10],0.000587 s⁻¹
same,kon,[10],501000 M⁻¹ s⁻¹
"PRO1903 (scFv, V domains shown) VH: QSQLVESGGGLVQPGGSLRLSCAASGFSFSANYWICWVRQAPGKGLEWIVCIYIGSRADTYYAPWAKGRFTISKDNSKNTVYLQMNSLRAEDTAVYFCARFSSGIYDLDRFFLWGQGTLVTVSS V domain: AFQLTQSPSSLSASVGDRVTITCQASQSIESWLAWYQQKPGKPPKLLIYQASKLASGVPSRFSGSGSGTDYTLTISSLQPEDFATYYCQTYYGGGHIGWGFGTGTKVTV",Kd,[10],1.39 nM
same,koff,[10],0.000605 s⁻¹
same,kon,[10],434000 M⁻¹ s⁻¹
same,"IC50, neutralization of hIL-31-induced signaling in IL-31RA/OSMR dimerization assay",[11],7.98 ng/mL
same,"rel. IC50 (IC50, BMS-981164/IC50, test sample)",[11],1.49
